B1: ADH-RhB: alcohol dehydrogenase (150 kDa) labeled with rhodamine B isothiocyanate, 6 RhB molecules per ADH (conjugate)
chain: SIPETQKGVIFYESHGKLEYKDIPVPKPKANELLINVKYSGVCHTDLHAWHGDWPLPVKLPLVGGHEGAGVVVGMGENVKGWKIGDYAGIKWLNGSCMACEYCELGNESNCPHADLSGYTHDGSFQQYATADAVQAAHIPQGTDLAQVAPILCAGITVYKALKSANLMAGHWVAISGAAGGLGSLAVQYAKAMGYRVLGIDGGEGKEELFRSIGGEVFIDFTKEKDIVGAVLKATDGGAHGVINVSVSEAAIEASTRYVRANGTTVLVGMPAGAKCCSDVFNQVVKSISIVGSYVGNRADTREALDFFARGLVKSPIKVVGLSTLPEIYEKMEKGQIVGRYVVDTSK

Tests used:
[1] = system: YFP-expressing Arabidopsis thaliana leaf; experiment: Quantification of peptide delivery efficiency (protein extracted from contacted leaf, PAGE fluorescence); format: in vivo; conditions: 6 hours after contact; for peptide/protein molar ratio at which the amount of the collected protein was the greatest: BSA-RhB
Method: (§1) About 100 μl of the solution of the carrier peptide/protein complex (the (BP100)2K/BSA-RhB or BP100(KH)9/BSA-RhB complex) prepared in Example 1 was brought into direct contact with an YFP-expressing Arabidopsis thaliana leaf at various peptide/protein molar ratios (1, 5, 10, and 25) with a needleless syringe. Also, about […] of the solution of the carrier peptide/protein complex (the (BP100)2Ks/ADH-RhB complex) prepared in Example 1 was brought into direct contact with an YFP-expressing Arabidopsis thaliana leaf at the peptide/protein molar ratio of 10.
A transgenic YFP-expressing Arabidopsis thaliana leaf was collected 6 hours after bringing it into contact with the (BP100)2K8/BSA-RhB or BP100(KH)9/BSA-RhB complex, and the leaf was washed 2 times with PBS (D-PBS(−), Wako Pure Chemical Industries Ltd., Osaka, Japan) to remove excess BSA-RhB on the leaf surface. Total crude protein extracted from the contacted leaf with 1× lysis buffer (Promega, Madison, U.S.A.) was subjected to 4 to 15% tris-glycine-sodium dodecyl sulfate (SDS)-polyacrylamide gel electrophoresis (PAGE) (Bio-rad, California, U.S.A.) at a constant voltage of 100 V. Thereafter, the BSA-RhB fluorescence was detected at the excitation light of 520 nm and the emission light of 605 nm with the Luminoimage analyzer (LAS-3000, Fujifilm Corporation, Tokyo, Japan). After detecting the fluorescence, the gel was stained with Coomassie blue G250 (Bio-rad, California, U.S.A.) to detect the Rubisco large subunit. The BSA-RhB fluorescence band density and the Coomassie blue-stained rbcL band density were quantified using Image J64 (NIH, Bethesda, Md.), and the BSA-RhB band density was normalized against the rbcL band density. SDS-PAGE was performed again based on the normalized data. The volume of the subjected crude protein in each sample was adjusted, in such a manner that the band density of Coomassie blue-stained rbcL bands would be equivalent to each other among all the tested samples, so as to attain the BSA-RhB band having the normalized fluorescence intensity. […] The total amount of the BSA-RhB protein collected from the contacted leaf was calculated in accordance with the formulae below.
The total amount (μg) of the BSA-RhB protein extracted per contacted leaf=(the amount (μg) of the protein corresponding to the RhB intensity measured per lane of the gel/the volume (μl) of the subjected crude protein per lane of the gel)×the total volume (l) of the extracted crude protein. […]
The obtained data are shown as the mean the standard deviation (SD) of the three tests. […] A statistic difference was determined at a statistic significance of p<0.05 via analysis of variance (ANOVA) and the Tukey's honestly significant difference (HSD) test.

[2] = Hydrodynamic diameter and PDI by dynamic light scattering (DLS); format: physicochemical; conditions: protein not forming the complex (no carrier peptide)
Method: (§2) A solution of 1.0 g/l of the peptide ((BP100)2K or BP100(KH)9) was mixed with 2 μg of the protein (the BSA-RhB conjugate) at various peptide/protein molar ratios (1, 5, 10, and 25) at 25° C. for about 5 minutes to prepare carrier peptide/protein complexes, and the resultants were diluted to the final volume of 100 μl with autoclaved ultrapure water (MilliQ water). Thereafter, 10 µl of the solution was taken and further diluted to the final volume of 100 μl. The average hydrodynamic diameter of the complexes was measured via dynamic light scattering (DLS) using Zetasizer Nano-ZS (Malvern Instruments, Ltd., Worcestershire, U.K.). Polydispersion indexes (PDI) were determined with the zeta nanosizer (Zetasizer software ver 6.20) using He—Ne laser (633 nm) at 25° C. and a backscattering detection angle of 173°. Thereafter, the sample was further diluted to the total volume of 750 μl with autoclaved ultrapure water (MilliQ water), and the zeta potential was analyzed via laser Doppler microelectrophoresis using Zetasizer Nano-ZS. The zeta potential and zeta shift of the samples were measured three times and the average was determined with Zetasizer software ver 6.20.

[3] = Zeta potential by laser Doppler microelectrophoresis; format: physicochemical; conditions: protein not forming the complex (no carrier peptide)
Method: as §2

[4] = system: YFP-expressing Arabidopsis thaliana leaf; experiment: Incorporation of carrier peptide/protein complex into cells (CLSM); format: in vivo; conditions: ADH-RhB alone, absence of carrier peptide, data not shown
Method: as §1
Incorporation of proteins into cells was quantitatively assayed using a confocal laser scanning microscope (CLSM, Carl Zeiss, Oberkochen, Germany). Intracellular delivery of the peptide/BSA-RhB complex or the peptide/ADH-RhB complex to an YFP-expressing Arabidopsis thaliana leaf was observed by detecting the YFP fluorescence at the excitation light of 488 nm and detecting the RhB fluorescence at the excitation light of 555 nm.

Row | Molecule | peptide/protein molar ratio at which the amount of the collected protein was the greatest [1] | protein delivery capacity (BSA-RhB extracted from leaf) ([1]; all peptide/protein molar ratios (1-25)) | Hydrodynamic diameter [2] [nm] | Zeta potential [3] [mV] | BSA-RhB extracted from the leaf ([1]; with or without carrier peptide) | ADH-RhB signal in leaf [4]
1 | KKLFKKILKYLKKLFKKILKYLKKKKKKKK (SEQ ID NO: 23) [(BP100)2K8, carrier peptide, fusion of BP100 and oligolysine] | 10 | superior to that of the BP100(KH)9 fusion peptide |  |  |  | 
2 | KKLFKKILKYLKHKHKHKHKHKHKHKHKH (SEQ ID NO: 24) [BP100(KH)9, carrier peptide] | 5 |  |  |  |  | 
3 | BSA-RhB: bovine serum albumin labeled with rhodamine B isothiocyanate, 4 RhB molecules per BSA [reference compound] |  |  | 92±2 | −35.3±1.5 | extracted from the leaf only when the carrier peptide was used | 
4 | B1 |  |  | 168±7 | −43.1±1.1 |  | not detected

— patent US11279941B2, “Method for introducing protein into plant cell” (RIKEN, priority 2016, dated 2022)
